Measurements from the RNAGym collection of RNA variant scans (doi:10.1073/pnas.2313332121).
This sample holds only a part of the variants without activity.

B1: TPR 5TU (parent)
chain: GGAUCUUCUCGAUCUAACAAAAAAGACAAAUCUGCCACAAAGCUUGAGAGCAUCUUCGGAUGCAGAGGCGGCAGCCUUCGGUGGCGCGAUAGCGCCAACGUUCUCAACUAUGACACGCAAAACGCGUGCUCCGUUGAAUGGAGUUUAUCAUG

Variants of: B1
Assay: polymerase ribozyme fitness, log enrichment relative to wild type (log ratio); higher = more active; in vitro selection for triplet polymerase activity
How it was run: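 Both subunits of a heterodimeric triplet polymerase ribozyme were given their own mutant library, built by PCR and transcribed. Each library was annealed with a biotinylated primer, the partner subunit and triplets, incubated frozen at −7 °C, and its extended constructs gel-excised, captured on streptavidin beads and amplified by RT-PCR, all in one round done in triplicate. Fitness is the logarithm of genotype enrichment relative to wild-type enrichment, with replicates averaged by inverse-variance weighting. That logarithm is base 2, and Illumina-sequenced genotypes needed ≥10 input reads and ≥1 read per output.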
With GGAUCUUCUCGAUCUAACAAAAAAGACAAAUCUGCCAUAAAGCUUGAGAGCAUCUUCGGCAGCAGAGGCGGCAGCUUUCGGUGGCGGGAUAGAGCCAACGUUCUCAACUAUGACACGCAAAACGCGUGCUCCGUUAAAUGAAGUUUAUCAUG the “polymerase ribozyme fitness (log ratio)” value was ≤ -4.2. In the case of GGAUCUUCUCGAUCUAACAAAAAAGACAAAUCUGCCAUCAAGCUUGAGAGCAUCUUCGGUUGCAGAGGCGGCAGCCUUCGGUGGCGCGAUAGCGCCAACGUUCUCAACUAUGACACGCAAAACGCGUGCUCCGUUGAAUGGAGUUUAUCAUG, the “polymerase ribozyme fitness (log ratio)” value is reported as -3.28. With GGAUCUUCUCGAUCUAACAAAAAAGACAAAUCUGCCAUAAAGCUUGAGAGCCUCUUCGGGUGCAGAGGCGGCAGCCUUCGGUGGCGCGAUAGCGCCAACGUUCUCAACUAUGACACGCGAAACGCGUGCUCCGUUGAAUGGAGUUUAUCAUG the “polymerase ribozyme fitness (log ratio)” value was 0.129. With GGAUCUUCUCGAUCUAACAAAAAAGACAAAUCUGCCAUAAAGCUUGAGAGCAUCUUCGGCUGCAGAGGCGGCAGCCGUCGGUGGCGUGAUAGCACCAACGAUCUAAACUAUGACACGCAAAACGCGUGCUCCGUUGAAUGGAGUUUAUCAUG the “polymerase ribozyme fitness (log ratio)” value was ≤ -4.2. With GGAUCUUCUCGAUCUAACAAAAAAGACAAAUCUGCCAUAAGGCUUGAGAGCAUCUUCAGAUGCAGAGGCGGCAGCCUUCGGUGGCGCGAUAGCGCCAACGUUCUCAACUAUGACACGCAAAACGCGUGCUCCGUUGAAUGGAGUUUAUCAUG the “polymerase ribozyme fitness (log ratio)” value was 1.52. With GGAUCUUCUCGAUCUAACAAAAAAGACAAAUCUGCCAUAAAGCUUGAGAGCAUCUUCGGUUGCAGAGGCGGCAGCCUUCGGUGGCGUGAUAGCGGCAACGUUCUCAACUAUGACACGCAAAACGCGUGCUCCGUAGAAUGGAGUUUAUCAUG the “polymerase ribozyme fitness (log ratio)” value was ≤ -4.2. In the case of GGAUCUUCUCGAUCUAACAAAAAAGACAAAUCUGCCAUAAAGCUUGAGAGCGUCUUCGGAUGCAGAGGCGGCAGCCUUCGGUGGCGCGAUAGGGCCAACGUUCUCAACUAUGACACUCAAAACGCGUGCUCCGUUGAAUGGAGUUUAUCAUG, the “polymerase ribozyme fitness (log ratio)” value is reported as -3.91. For GGAUCUUCUCGAUCUAACAAAAAAGACAAAUCUGCCAUAAAGCUUGAGUGCAUCUUCGGAGGCAGAGGCGGCAGCCUUCGGUUGCGCGAUAGCGCCAACGUUCUCAACUAUGACACGCAAAACGCGUGCUCCCUUGAAUGGCGUUUAUCAUG, the “polymerase ribozyme fitness (log ratio)” value was ≤ -4.2. With GGAUCUUCUCGAUCUAACAAAAAAGACAAAUCUGCCAUAAAGCUUGAGCGCAUCUUCGGAUGCAGAGGCGGCAGCCUUCGGUGGCGCGAUAGCGCCAACGUUCUCAACUAUGACACGCAAAACGCGUGCUCCGUUGAAUGGAGUUUAUCAUG the “polymerase ribozyme fitness (log ratio)” value was ≤ -4.2. In the case of GGAUCUUCUCGAUCUAACAAAAAAGACAAAUCUGCCAGAAAGCUUGAGAGCAUCUACGGAUGCAGAGGCGGCAGCCUUCGGUGGCUCGAUAGCGCCAACGUUCUCAACUAUGACACGCAAAACGCGUGCACCGUUGAAUGGAGUUUAUCAUG, the “polymerase ribozyme fitness (log ratio)” value is reported as ≤ -4.2. In the case of GGAUCUUCUCGAUCUAACAAAAAAGACAAAUCUGCCAUAAAGCUUGCGAGCAACUUCGGAUGCAGAGGCGGCAGCCUUCGGUGGCGCGAUAGCGCCAACGUUCUCAACUAUGACACGCAAAACGCGUGCUCCGUUGAAUGGCGUUUAUCAUG, the “polymerase ribozyme fitness (log ratio)” value is reported as -3.39. For GGAUCUUCUCGAUCUAACAAAAAAGACAAAUCUGCCAUAAAGCUUGAGAGCAUCUUCGGAUGCAGAGGCGGCGGCCUUCGGUGGCGUGAUAGCGCCAACGUUCUCAACUAUGACACGCAAAACGCGUGCUCCGUUGAAUGGAGUUUAUCAUG, the “polymerase ribozyme fitness (log ratio)” value was 0.139. With GGAUCUUCUCGAUCUAACAAAAAAGACAAAUCUGCCAUAAAGCUUGAGAGCGUCUUCGGAUGCAGAGGCGGCUGCCUUCGGUGGCGCGAUAGCGCCAACGUUCUCAACUAUGACACGCAAAACGCGUGCUCCGUUGAAUGGAGUUUAUCAUU the “polymerase ribozyme fitness (log ratio)” value was -4.12. In the case of GGAUCUUCUCGAUCUAACAAAAAAGACAAAUCUGCCAUAAAGCUUGAGAGCAUCUUCGGAUGCAGAGGCGGCAGCCUUCGGUGGCGCGAUAGCGCCAACGUUCUCAACUUUGACACGCAAAACGCGUGCUCCGUUGAAUGGAGUUUAUCAUG, the “polymerase ribozyme fitness (log ratio)” value is reported as -3.7. In the case of GGAUCUUCUCGAUCUAACAAAAAAGACAAAUCUGCCAGAAAGCUUGAGAGCAUCUUCGGAUGCAGAGGCGGCAGCCUUCGGUGGCGCGAUAGCGCCAACGUUCUCAACUAUGACACGCAAAACGCGUGCUCCGUUGAAUGGAGUUCAUCAUG, the “polymerase ribozyme fitness (log ratio)” value is reported as -0.518. In the case of GGAUCUUCUCGAUCUAACAAAAAAGACAAAUCUGCCAUAAAGCUUGAGAGCAUCUUCGGAUGCAGGGGCGGCAGCCUUCGGAGGCGCGAUAGCGCUAACGUUCUCAACUAUGACACGCAAAACGAGUGCUCCGUUGAAUGGAGUAUAUCAUG, the “polymerase ribozyme fitness (log ratio)” value is reported as ≤ -4.2. For GGAUCUUCUCGAUCUAACAAAAAAGACAAAUCUGCCAGAAAGCUUGAGAGCAUCUACGGAUGCAGAGGCGGCAGCCUUCGGUGGCGCGAUAGCACCAACGUUCUCAACUAUGACACGCAAGACGCGUGCUCCGUUGAAUGGAGUUUAUCAUG, the “polymerase ribozyme fitness (log ratio)” value was -1.64. With GGAUCUUCUCGAUCUAACAAAAAAGACAAAUCUGCCAUACAGCUUGAGAGCAUCUUCGGAUGCAGAGGCGGCAGCCUUCUGUGGCGCGAUAGCGUCAACGUUCUCAACUAUGACACGCAAAACGCGUGCUCCGUUGAAUGGAGUUUAUCAUG the “polymerase ribozyme fitness (log ratio)” value was -1.06. With GGAUCUUCUCGAUCUAACAAAAAAGACAAAUCUGCCAUCAAGCUUGAGAGCAUCUUCGGAGGCAGAGGCGGCAGCCUUCGGUGGCGCGAUAGCGCCAACGUUCUCAACUAUGACACGCAAAACCCGUGCUCCGUUGAAUGGAGUUUAUCAUG the “polymerase ribozyme fitness (log ratio)” value was -3.96.
